Data: patent publication US20050222029A1 (MYRIAD GENETICS, published 2005)

B15: Tumor Suppressor (TSG101) 140-270 (other, human, UniProt Q99816 140-270, looked up)
chain: PVFSRPISASYPPYQATGPPNTSYMPGMPGGISPYPSGYPPNPSGYPGCPYPPGGPYPATTSSQYPSQPPVTTVGPSRDGTISEDTIRASLISAVSDKLRWRMKEEMDRAQAELNALKRTEEDLKKGHQKL
notes: range 140-270; bait (Gal4 DBD fusion)
B16: Tumor Suppressor (TSG101) 147-391 (other, human, UniProt Q99816 147-390, looked up)
chain: SASYPPYQATGPPNTSYMPGMPGGISPYPSGYPPNPSGYPGCPYPPGGPYPATTSSQYPSQPPVTTVGPSRDGTISEDTIRASLISAVSDKLRWRMKEEMDRAQAELNALKRTEEDLKKGHQKLEEMVTRLDQEVAEVDKNIELLKKKDEELSSALEKMENQSENNDIDEVIIPTAPLYKQILNLYAEENAIEDTIFYLGEALRRGVIDLDVFLKHVRLLSRKQFQLRALMQKARKTAGLSDLY
notes: bait (Gal4 DBD fusion)

How the values were obtained:
Assay in all cases: yeast two-hybrid
[1] = target: B16
[2] = target: B15
[3] = target: T1, Tumor Suppressor (TSG101) 50-391 (human, UniProt Q99816 50-390)
T1 construct: range 50-391; bait (Gal4 DBD fusion)
T1 sequence (looked up): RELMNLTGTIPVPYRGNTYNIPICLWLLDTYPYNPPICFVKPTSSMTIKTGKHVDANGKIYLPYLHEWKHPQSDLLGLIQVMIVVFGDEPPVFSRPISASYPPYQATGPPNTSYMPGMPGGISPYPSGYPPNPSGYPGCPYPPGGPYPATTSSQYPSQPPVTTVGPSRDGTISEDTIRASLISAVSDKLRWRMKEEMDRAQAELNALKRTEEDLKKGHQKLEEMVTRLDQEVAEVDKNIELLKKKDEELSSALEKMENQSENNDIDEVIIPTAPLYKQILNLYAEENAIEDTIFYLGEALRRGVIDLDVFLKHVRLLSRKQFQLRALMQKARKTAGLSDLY

[4] = target: T2, Tumor Suppressor (TSG101) 1-274 (human, UniProt Q99816 1-274)
T2 construct: range 1-274; bait (Gal4 DBD fusion)
T2 sequence (looked up): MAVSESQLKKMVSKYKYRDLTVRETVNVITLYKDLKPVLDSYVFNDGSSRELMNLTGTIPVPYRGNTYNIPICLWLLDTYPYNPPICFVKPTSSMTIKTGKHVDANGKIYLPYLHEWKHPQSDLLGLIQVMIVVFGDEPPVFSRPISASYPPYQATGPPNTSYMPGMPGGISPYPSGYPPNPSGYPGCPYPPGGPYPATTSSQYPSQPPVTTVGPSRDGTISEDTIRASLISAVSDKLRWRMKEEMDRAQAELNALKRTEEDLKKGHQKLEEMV

[5] = target: T3, Cytoplasmic dynein light chain 1 (HDLC1) 1-90 (human, UniProt P63167 1-89)
T3 construct: range 1-90; prey (Gal4 AD-HA fusion)
T3 sequence (P63167 whole entry, the tested form may be a part): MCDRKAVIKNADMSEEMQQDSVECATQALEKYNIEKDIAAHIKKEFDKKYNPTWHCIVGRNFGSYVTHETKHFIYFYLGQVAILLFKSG

[6] = target: T4, DNA helicase II, ATP-dependent, 70 kD subunit (KU70) 131-403 (table prints 1131-4404) (human, UniProt P12956 131-403)
T4 construct: prey (Gal4 AD-HA fusion)
T4 sequence (P12956 131-403 limits assumed): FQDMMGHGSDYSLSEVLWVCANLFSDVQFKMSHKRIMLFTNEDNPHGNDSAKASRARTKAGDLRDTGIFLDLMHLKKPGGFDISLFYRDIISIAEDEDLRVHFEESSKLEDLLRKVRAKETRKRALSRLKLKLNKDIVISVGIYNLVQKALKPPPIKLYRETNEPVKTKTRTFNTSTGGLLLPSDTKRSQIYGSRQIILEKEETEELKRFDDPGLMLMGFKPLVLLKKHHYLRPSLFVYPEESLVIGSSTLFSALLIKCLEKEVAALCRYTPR

[7] = target: T5, v-akt murine thymoma viral oncogene homolog 1 (AKT1) 1-150 (human, UniProt P31749 1-150)
T5 construct: range 1-150; bait (Gal4 DBD fusion)
T5 sequence (P31749 1-150 limits assumed): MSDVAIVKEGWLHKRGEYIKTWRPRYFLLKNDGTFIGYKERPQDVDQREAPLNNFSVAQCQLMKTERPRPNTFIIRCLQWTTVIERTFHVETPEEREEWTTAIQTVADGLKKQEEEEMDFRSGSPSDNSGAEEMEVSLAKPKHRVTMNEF

[8] = target: T6, v-akt murine thymoma viral oncogene homolog 2 (AKT2) 1-152 (human, UniProt P31751 1-152)
T6 construct: bait (Gal4 DBD fusion)
T6 sequence (looked up): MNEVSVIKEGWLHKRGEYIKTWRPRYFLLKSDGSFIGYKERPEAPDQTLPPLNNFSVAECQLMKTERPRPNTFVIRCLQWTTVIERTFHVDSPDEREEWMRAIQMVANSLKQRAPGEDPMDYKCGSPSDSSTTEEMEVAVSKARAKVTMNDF

[9] = target: T7, Hypothetical protein FLJ10540 1-140 (human, UniProt Q53EZ4 1-140)
T7 construct: range 1-140; prey (Gal4 AD-HA fusion)
T7 sequence (looked up): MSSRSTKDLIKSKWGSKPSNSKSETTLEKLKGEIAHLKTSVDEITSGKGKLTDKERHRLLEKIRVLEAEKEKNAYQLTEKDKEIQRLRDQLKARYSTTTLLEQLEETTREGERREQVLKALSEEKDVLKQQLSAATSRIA

[10] = target: T8, Hypothetical protein FLJ10540 2-132 (human, UniProt Q53EZ4 2-132)
T8 construct: prey (Gal4 AD-HA fusion)
T8 sequence (looked up): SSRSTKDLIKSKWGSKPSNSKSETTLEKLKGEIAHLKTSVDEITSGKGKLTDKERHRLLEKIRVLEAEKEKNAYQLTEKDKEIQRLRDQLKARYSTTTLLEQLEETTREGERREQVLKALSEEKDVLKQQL

[11] = target: T9, Golgi autoantigen (Golgin-84) 198-501 (human, UniProt Q8TBA6 198-501)
T9 construct: prey (Gal4 AD-HA fusion)
T9 sequence (looked up): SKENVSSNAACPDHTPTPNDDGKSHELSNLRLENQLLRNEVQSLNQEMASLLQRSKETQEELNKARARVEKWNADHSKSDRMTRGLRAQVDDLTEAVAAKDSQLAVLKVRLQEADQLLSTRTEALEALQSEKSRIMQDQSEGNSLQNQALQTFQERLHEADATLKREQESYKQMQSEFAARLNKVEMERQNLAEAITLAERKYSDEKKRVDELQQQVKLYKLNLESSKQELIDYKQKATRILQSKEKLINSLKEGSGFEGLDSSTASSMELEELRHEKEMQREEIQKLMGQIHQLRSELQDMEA

B1: VPS28 protein 27-221 (other, human, UniProt Q9UK41 27-221, looked up)
chain: YKNAREREKYDNMAELFAVVKTMQALEKAYIKDCVSPSEYTAACSRLLVQYKAAFRQVQGSEISSIDEFCRKFRLDCPLAMERIKEDRPITIKDDKGNLNRCIADVVSLFITVMDKLRLEIRAMDEIQPDLRELMETMHRMSHLPPDFEGRQTVSQWLQTLSGMSASDELDDSQVRQMLFDLESAYNAFNRFLHA
notes: prey (Gal4 AD-HA fusion); also called vacuolar protein sorting 28
binding result [1]: binds

B2: Hypothetical protein FLJ10540 1-115 (other, human, UniProt Q53EZ4 1-115, looked up)
chain: MSSRSTKDLIKSKWGSKPSNSKSETTLEKLKGEIAHLKTSVDEITSGKGKLTDKERHRLLEKIRVLEAEKEKNAYQLTEKDKEIQRLRDQLKARYSTTTLLEQLEETTREGERRE
notes: prey (Gal4 AD-HA fusion)
binding result [2]: binds

B3: Hypothetical protein FLJ10540 1-74 (other, human, UniProt Q53EZ4 1-74, looked up)
chain: MSSRSTKDLIKSKWGSKPSNSKSETTLEKLKGEIAHLKTSVDEITSGKGKLTDKERHRLLEKIRVLEAEKEKNA
notes: range 1-74; prey (Gal4 AD-HA fusion)
binding result [2]: binds

B4: Hypothetical protein FLJ10540 1-120 (other, human, UniProt Q53EZ4 1-120, looked up)
chain: MSSRSTKDLIKSKWGSKPSNSKSETTLEKLKGEIAHLKTSVDEITSGKGKLTDKERHRLLEKIRVLEAEKEKNAYQLTEKDKEIQRLRDQLKARYSTTTLLEQLEETTREGERREQVLKA
notes: range 1-120; prey (Gal4 AD-HA fusion)
binding result [2]: binds

B5: Hypothetical protein FLJ10540 115-231 (other, human, UniProt Q53EZ4 115-231, looked up)
chain: EQVLKALSEEKDVLKQQLSAATSRIAELESKTNTLRLSQTVAPNCFNSSINNIHEMEIQLKDALEKNQQWLVYDQQREVYVKGLLAKIFELEKKTETAAHSLPQQTKKPESEGYLQE
notes: prey (Gal4 AD-HA fusion)
binding result [3]: binds

B6: VPS28 protein 10-221 (other, human, UniProt Q9UK41 10-221, looked up)
chain: GIGAPGNKPELYEEVKLYKNAREREKYDNMAELFAVVKTMQALEKAYIKDCVSPSEYTAACSRLLVQYKAAFRQVQGSEISSIDEFCRKFRLDCPLAMERIKEDRPITIKDDKGNLNRCIADVVSLFITVMDKLRLEIRAMDEIQPDLRELMETMHRMSHLPPDFEGRQTVSQWLQTLSGMSASDELDDSQVRQMLFDLESAYNAFNRFLHA
notes: as for B1
binding result [1]: binds

B7: Actinin (ACTN1) 719-892 (other, human, UniProt P12814 719-892, looked up)
chain: QLLTTIARTINEVENQILTRDAKGISQEQMNEFRASFNHFDRDHSGTLGPEEFKACLISLGYDIGNDPQGEAEFARIMSIVDPNRLGVVTFQAFIDFMSRETADTDTADQVMASFKILAGDKNYITMDELRRELPPDQAEYCIARMAPYTGPDSVPGALDYMSFSTALYGESDL
notes: prey (Gal4 AD-HA fusion)
binding result [4]: binds

B8: Hypothetical protein FLJ10540 1-110 (other, human, UniProt Q53EZ4 1-110, looked up)
chain: MSSRSTKDLIKSKWGSKPSNSKSETTLEKLKGEIAHLKTSVDEITSGKGKLTDKERHRLLEKIRVLEAEKEKNAYQLTEKDKEIQRLRDQLKARYSTTTLLEQLEETTRE
notes: range 1-110; prey (Gal4 AD-HA fusion)
binding result [3]: binds

B9: Survivin (BIRC5) 89-143 (other, human, UniProt O15392 89-142, looked up)
chain: VKKQFEELTLGEFLKLDRERAKNKIAKETNNKKKEFEETAKKVRRAIEQLAAMD
notes: range 89-143; bait (Gal4 DBD fusion); also called API4
binding result [5]: binds

B10: Survivin (BIRC5) 3-99 (other, human, UniProt O15392 3-99, looked up)
chain: APTLPPAWQPFLKDHRISTFKNWPFLEGCACTPERMAEAGFIHCPTENEPDLAQCFFCFKELEGWEPDDDPIEEHKKHSSGCAFLSVKKQFEELTLG
notes: range 3-99; bait (Gal4 DBD fusion); also called API4
binding result [6]: binds

B11: farnesyltransferase, CAAX box, alpha (FNTA) 189-328 (enzyme)
chain: not shown
notes: prey (Gal4 AD-HA fusion)
binding result [7]: binds

B12: Hypothetical protein FLJ10540 1-231 (other, human, UniProt Q53EZ4 1-231, looked up)
chain: MSSRSTKDLIKSKWGSKPSNSKSETTLEKLKGEIAHLKTSVDEITSGKGKLTDKERHRLLEKIRVLEAEKEKNAYQLTEKDKEIQRLRDQLKARYSTTTLLEQLEETTREGERREQVLKALSEEKDVLKQQLSAATSRIAELESKTNTLRLSQTVAPNCFNSSINNIHEMEIQLKDALEKNQQWLVYDQQREVYVKGLLAKIFELEKKTETAAHSLPQQTKKPESEGYLQE
notes: prey (Gal4 AD-HA fusion)
binding result [3]: binds

B13: tetratricopeptide repeat domain 3 (TPRD) 1058-1189 (other, human, UniProt P53804 1058-1189, looked up)
chain: NRNSDSAGPFAVPDHLRQDVEEFEALYDQHSNEYVVRNKKLWDMNPKQKCSTLYDYFSQFLEEHGPLDMSNKMFSAEYEFFPEETRQILEKAGGLKPFLLGCPRFVVIDNCIALKKVASRLKKKRKKKNIKT
notes: prey (Gal4 AD-HA fusion)
binding result [7]: binds
binding result [8]: binds

B14: Hypothetical protein FLJ10540 1-117 (other, human, UniProt Q53EZ4 1-117, looked up)
chain: MSSRSTKDLIKSKWGSKPSNSKSETTLEKLKGEIAHLKTSVDEITSGKGKLTDKERHRLLEKIRVLEAEKEKNAYQLTEKDKEIQRLRDQLKARYSTTTLLEQLEETTREGERREQV
notes: prey (Gal4 AD-HA fusion)
binding result [3]: binds

B15
binding result [9]: binds
binding result [10]: binds

B16
binding result [11]: binds
